In patent publication US11142752B2, “Pullulanase mutant” (Jiangnan University, priority 2018, dated 2021):

B1: Geobacillus stearothermophilus Wild enzyme: wild pullulanase of Geobacillus stearothermophilus (KZE96788.1, SEQ ID NO: 20) (protein)
chain: MLHISRTFAAYLDEIDQITVIVPKARCLDNMEPFVMTAPSGEDIPLVVQQKEDLGDAVKYVCRFSVPFQIGETHWIRARSGEESDVQIGAVVRTAAFDDQFFYDGKLGVEYAKEQTIFRVWAPTATAVSVKLVHPDHGDVRYVPLVRGERGVWSVAVSGDWERARYMYVACINRVWREAVDPYATAVSVNGEHGVIVDWEKTKLAKPAPPLPPCPSPTDAVIYELSIRDFTSHPDSGAVWKGKYLGLTEEHTRGPNGTVTGLSYLKELGVTHVQLMPFADFAGVDERDPQAAYNWGYNPLHLYAPEGSYATDPHDPYARIVELKQAIRALQENGLRVVMDAVYNHVYDREQSPLENLVPGYYFRYDAYGRPANGTGVGNDIASERRMARRWIVDSVVFWAKEYGINGFRFDLMGVHDIETMKSVRDALDAIDPSILVYGEGWDLPTPLAPEQKATMANAKRLPRLAYFNDRFRDAVKGSTFYLPDRGFALGDSAGREQVKTAIAGSLQAFGGLFCHPLQSINYVECHDNHTFWDKMEAANGHEPEWLRRKRQKLATAIVLLAQGIPFLHSGQEFYRTKGGDENSYRSPDAVNRLDWERKSRYEDDVRYIQGLIAIRRAHGAFRLATEVDVQRHLTFLEPIPPSVIAYWLRDVALYGLWTDIVVIHHNEETGVVIALPDDGEWHVVCDGERSGTVPLRQVRRFLDADGIGTWVLVKTGAAADVENGK
modifications: bacterial
B2: Bacillus halotolerans Wild enzyme: wild pullulanase of Bacillus halotolerans (WP_106020274.1, SEQ ID NO: 26) (protein)
chain: MVCIQRSFEAYADEMNIITVLIPADQKDTFTPPFQLETDTAEIPLTVSQEWQIEGKYKYVCVAEQPVAFGKTHHVKASGGGKTDLQIGAVVRTDAFDAAFYYDGELGAVYASDYTEFKVWAPAATSAAVKLSHPEKSGYTLQMTRMENGVYAVTVAGDLHGYEYVYRICNNLEWTETVDPYAKAVTVNGEKGVVLRPDQANSAPSFTPFSAPVDAIIYEMHIRDFSIHENSGTKNKGKYAALAETDTKTKNGSSTGLSYLKELGVTHIELLPLNDYAGVDEENPLAAYNWGYNPLHFFAPEGSYSSNPHDPQTRNTEVKQMIHTLHQHGLRVILDVVYNHVYQREHSPFEKTVPGYFFRHDQFGMPSNGTGVGNDIASERRMARKFITDCVMYWLKEYDVDGFRFDLLGILDIETVLHMKEKASEVKSGILLFGEGWDLATPLPPEQKATLANASKMPGVGFFNDSFRDAVKGNTFHIAAAGFALGNGEKTETVMHGIAGSSGWKETAPLVSAPSQSINYVESHDNHTFWDKMSLALPQESESRKRSRQKLASAIILLAQGVPFIHSGQEFFRTKQGVENSYQSSDSINQLDWSRRETFKQDVDYVRRLISLRKAHPAFRLTSSADIQRCLECLALKEHLIVYRLFNLGAIDEWEEIIVIHHASPDSVTWQLPKDKAYRLLCDTDGFRADHGEIKKAVAVNGIGTVILYLARDLTSFA
modifications: bacterial

What was measured:
[1] = test system: pullulanase of Geobacillus stearothermophilus; test: Inhibitory effect of cyclodextrin on pullulanase enzyme activity (DNS method, pullulan substrate); assay type: biochemical
Description: (§1) 2. Measurement of Enzyme Activity of the Pullulanase:
(§2) A 3,5-dinitrosalicylic acid (DNS) method is adopted. The pullulanase catalyzes the hydrolysis of pullulan to produce reducing sugar under certain conditions, 3,5-dinitrosalicylic acid and the reducing sugar are reduced under thermal conditions to produce a brown-red amino complex, the color depth is directly proportional to the amount of the reducing sugar within a certain range, and the measurement can be performed at the wavelength of 540 nm so as to calculate the enzyme activity. Enzyme activity unit definition: the amount of the enzyme that catalyzes the production of the reducing sugar equivalent to 1 μmol of glucose reducing power per minute is defined as one activity unit.
(§3) 3. Measurement of the Enzyme Activity Comprises the Following Steps:
(§4) A. preheating: putting 1 mL of a 1% pullulan solution of which the pH value is 6.0 and 0.1 mL of a buffer solution of which the pH value is 6.0 in a centrifuge tube, and performing thermal insulation for 10 min on a water bath of 40° C.;
(§5) B. reaction: adding 0.1 mL (10 U) of an enzyme solution, performing shaking and mixing uniformly, performing accurate timing for 30 min, adding 1.5 mL of DNS for stopping reaction, performing treatment in a boiling water bath for 10 min, and performing instant cooling; and
(§6) C. measurement: measuring the light absorption value under the condition of 540 nm, and calculating the activity.
(§7) Reduction of the Inhibitory Effect of Enzyme Activity Characterization:
(§8) A. preheating: putting 1 mL of the 1% pullulan solution of which the pH value is 6.0 and 0.1 mL of 10 mM cyclodextrin in the centrifuge tube, and performing thermal insulation for 10 min on the water bath of 40° C.;
(§9) B. reaction: adding 0.1 mL (10 U) of the enzyme solution, performing shaking and mixing uniformly, performing accurate timing for 30 min, adding 1.5 mL of DNS for stopping reaction, performing treatment in the boiling water bath for 10 min, and performing instant cooling; and
(§10) On the basis, the phenylalanine at the position 481 of the Geobacillus stearothermophilus, the phenylalanine at the position 478 of the [Brevibacterium] halotolerans and the phenylalanine at the position 476 of the […] are mutated, obtained mutants and the mutation effects are shown in the table below. The key amino acid site is applicable to the pullulanase from different sources.

[2] = test system: pullulanase of Bacillus halotolerans; test: as above; assay type: biochemical
Description: as §1, §2, §3, §4, §5, §6, §7, §8, §9, §10

Molecule | Reduction rate of specific enzyme activity in existence of α-CD ([1]; inhibitor α-CD) | Reduction rate of specific enzyme activity in existence of β-CD ([1]; inhibitor β-CD) | Reduction rate of specific enzyme activity in existence of γ-CD ([1]; inhibitor γ-CD) | Reduction rate of specific enzyme activity in existence of α-CD ([2]; inhibitor α-CD) | Reduction rate of specific enzyme activity in existence of β-CD ([2]; inhibitor β-CD) | Reduction rate of specific enzyme activity in existence of γ-CD ([2]; inhibitor γ-CD)
B1 | 16.9% | 51.2% | 7.7% |  |  | 
B2 |  |  |  | 17.2% | 35.9% | 6.7%
